Results: FireProtDB (doi:10.1006/jmbi.1998.1906)

Conditions: Homo sapiens, Thermal, DSC, glycine 0.05 M, reversible: yes, whole UniProt chain shown

B1: Lysozyme C wild type, P61626 (protein)
chain: MKALIVLGLVLLSVTVQGKVFERCELARTLKRLGMDGYRGISLANWMCLAKWESGYNTRATNYNAGDRSTDYGIFQINSRYWCNDGKTPGAVNACHLSCSALLQDNIADAVACAKRVVRDPQGIRAWVAWRNRCQNRDVRQYVQGCGV
- Tm (pH 2.53): 45.5 °C
- unfolding enthalpy (calorimetric) (pH 2.53): 75.4 kcal/mol
- unfolding enthalpy (van 't Hoff) (pH 2.53): 79.8 kcal/mol
- Tm (pH 2.7): 49.2 °C
- unfolding enthalpy (calorimetric) (pH 2.7): 82.5 kcal/mol
- unfolding enthalpy (van 't Hoff) (pH 2.7): 85.4 kcal/mol
- Tm (pH 2.81): 52 °C
- unfolding enthalpy (calorimetric) (pH 2.81): 85.9 kcal/mol
- unfolding enthalpy (van 't Hoff) (pH 2.81): 89.2 kcal/mol
- Tm (pH 3.04): 55.4 °C
- unfolding enthalpy (calorimetric) (pH 3.04): 91.6 kcal/mol
- unfolding enthalpy (van 't Hoff) (pH 3.04): 95 kcal/mol
- Tm (pH 3.14): 57.8 °C
- unfolding enthalpy (calorimetric) (pH 3.14): 96.4 kcal/mol
- unfolding enthalpy (van 't Hoff) (pH 3.14): 97.4 kcal/mol
